From the supplement of paper PMC7125110 come the findings set out here.

± gives the standard error. For some assays here: Variants at the floor of the assay were thinned out.

B1: glmS ribozyme (parent)
chain: AUAAAAGCGCCAGAACUACAGAAAUGUAGUUGACGAGGAGGAGGUUUAUCGAAUUUUCGGCGGAUGCCUCCAAA

Holding throughout (conditions): with glucosamine-6-phosphate
Variants of B1 are the subject of data set [1]. Description: kcat; higher = faster cleavage; RNA array. In short, it runs like this:
(§1)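 E. coli RNA polymerase transcribed barcoded ribozyme variants in situ on sequenced MiSeq chips, which were tracked via a hybridised Cy3 probe at 37 °C. Tiles were imaged over ~14 h after glucosamine-6-phosphate (40 μM to 10 mM) in HEPES/KCl/Mg(OAc)2 buffer was flowed in. Normalised per-tile medians were fit to one- or two-exponential decays for kobs, and kcat and KM came from weighted Michaelis–Menten fits.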

In data set [2] the parent is B1. As to the kind of experiment: KM; higher = weaker cofactor use; RNA array. In short, it runs like this: as §1
In data set [3] the parent is B1. Description: self-cleavage kobs at 40 uM GlcN6P; higher = faster cleavage; RNA array. The method in brief: as §1
In data set [4] the parent is B1. Description: self-cleavage kobs at 640 uM GlcN6P; higher = faster cleavage; RNA array. In short, it runs like this: as §1
Variants of B1 are the subject of data set [5]. As to the kind of experiment: self-cleavage kobs at 2500 uM GlcN6P; higher = faster cleavage; RNA array. In short, it runs like this: as §1
The variants in data set [6] derive from B1. As to the kind of experiment: self-cleavage kobs at 10000 uM GlcN6P; higher = faster cleavage; RNA array. The method in brief:
as §1

Variants of B1 are the subject of data set [7]. As to the kind of experiment: self-cleavage kobs at 160 uM GlcN6P; higher = faster cleavage; RNA array. In short, it runs like this:
as §1

With G29C G32A, in the data set with glucosamine-6-phosphate [1], the kcat is 0.00108 ± 0.00019 s⁻¹. Moreover, in the data set with glucosamine-6-phosphate [2], the KM stood at 1960 ± 740 µM. For the same variant, the “self-cleavage kobs at 40 uM GlcN6P” value in the data set with glucosamine-6-phosphate [3] was found to be 3.72e-05 ± 1.5e-05 s⁻¹. Further, the “self-cleavage kobs at 640 uM GlcN6P” value with glucosamine-6-phosphate [4] was 0.000251 ± 8.5e-05 s⁻¹. The “self-cleavage kobs at 2500 uM GlcN6P” value in the data set with glucosamine-6-phosphate [5] turned out to be 0.000762 ± 0.00038 s⁻¹. For the same variant, in the data set with glucosamine-6-phosphate [6], the “self-cleavage kobs at 10000 uM GlcN6P” value was 0.0009 ± 0.00015 s⁻¹.
As for C50U U54G, the kcat in the data set with glucosamine-6-phosphate [1] stood at 2.58e-05 ± 7.2e-06 s⁻¹. Also, the “self-cleavage kobs at 2500 uM GlcN6P” value with glucosamine-6-phosphate [5] was 4e-05 ± 1.6e-05 s⁻¹.
Turning to C10U U47A, in the data set with glucosamine-6-phosphate [1], the kcat was found to be 2.05e-05 ± 1.2e-06 s⁻¹. The KM with glucosamine-6-phosphate [2] worked out at 300 ± 150 µM. The “self-cleavage kobs at 40 uM GlcN6P” value in the data set with glucosamine-6-phosphate [3] is less than 1e-05 s⁻¹. Further, the “self-cleavage kobs at 160 uM GlcN6P” value in the data set with glucosamine-6-phosphate [7] was less than 1e-05 s⁻¹.
With G29C A48U U69G, in the data set with glucosamine-6-phosphate [1], the kcat came to 6.26e-05 ± 2.1e-05 s⁻¹. In addition, the “self-cleavage kobs at 640 uM GlcN6P” value with glucosamine-6-phosphate [4] was determined as 5.01e-05 ± 2.1e-05 s⁻¹. Moreover, the “self-cleavage kobs at 2500 uM GlcN6P” value with glucosamine-6-phosphate [5] came to 7.04e-05 ± 3e-05 s⁻¹.
On to C10U C61U G63A, for which the kcat with glucosamine-6-phosphate [1] is less than 1e-05 s⁻¹. In the data set with glucosamine-6-phosphate [6], the “self-cleavage kobs at 10000 uM GlcN6P” value is less than 1e-05 s⁻¹.
Consider G51C U69G, for which the kcat with glucosamine-6-phosphate [1] turned out to be 1.7e-05 ± 4.2e-06 s⁻¹.
A14C G41U: in the data set with glucosamine-6-phosphate [1], the kcat turned out to be 0.000291 ± 6.9e-05 s⁻¹. Moreover, the “self-cleavage kobs at 640 uM GlcN6P” value with glucosamine-6-phosphate [4] turned out to be 0.000102 ± 1.6e-05 s⁻¹. Moreover, the “self-cleavage kobs at 2500 uM GlcN6P” value with glucosamine-6-phosphate [5] was found to be 0.000161 ± 2.2e-05 s⁻¹. In the data set with glucosamine-6-phosphate [6], the “self-cleavage kobs at 10000 uM GlcN6P” value was found to be 0.000272 ± 4.2e-05 s⁻¹.
Regarding U55A G59U, in the data set with glucosamine-6-phosphate [1], the kcat is 1.92e-05 ± 2.2e-06 s⁻¹. For the same variant, the “self-cleavage kobs at 2500 uM GlcN6P” value with glucosamine-6-phosphate [5] was less than 1e-05 s⁻¹.
Take C16G A39C: in the data set with glucosamine-6-phosphate [1], the kcat was determined as 0.000798 ± 6e-05 s⁻¹. Moreover, in the data set with glucosamine-6-phosphate [2], the KM is 2400 ± 310 µM. Also, the “self-cleavage kobs at 160 uM GlcN6P” value with glucosamine-6-phosphate [7] was found to be 4.38e-05 ± 9.6e-06 s⁻¹. In addition, the “self-cleavage kobs at 640 uM GlcN6P” value in the data set with glucosamine-6-phosphate [4] is 0.000184 ± 2.9e-05 s⁻¹. In the data set with glucosamine-6-phosphate [5], the “self-cleavage kobs at 2500 uM GlcN6P” value was determined as 0.000427 ± 6.6e-05 s⁻¹. The “self-cleavage kobs at 10000 uM GlcN6P” value with glucosamine-6-phosphate [6] amounted to 0.000629 ± 7.2e-05 s⁻¹.
As for U30C U69C, the kcat with glucosamine-6-phosphate [1] is 0.00014 ± 1.4e-05 s⁻¹. The KM with glucosamine-6-phosphate [2] turned out to be 591 ± 210 µM. Further, the “self-cleavage kobs at 160 uM GlcN6P” value with glucosamine-6-phosphate [7] was 3.85e-05 ± 1.7e-05 s⁻¹. Also, the “self-cleavage kobs at 640 uM GlcN6P” value with glucosamine-6-phosphate [4] came out at 6.58e-05 ± 1e-05 s⁻¹. The “self-cleavage kobs at 2500 uM GlcN6P” value in the data set with glucosamine-6-phosphate [5] came to 0.000129 ± 1.3e-05 s⁻¹. Moreover, the “self-cleavage kobs at 10000 uM GlcN6P” value with glucosamine-6-phosphate [6] came to 0.000122 ± 1.4e-05 s⁻¹.
As to G44C U47C, the kcat with glucosamine-6-phosphate [1] was 1.4e-05 ± 4.3e-06 s⁻¹.
In the case of A6C U54C, the kcat in the data set with glucosamine-6-phosphate [1] stood at 0.000106 ± 1.8e-05 s⁻¹. Moreover, in the data set with glucosamine-6-phosphate [2], the KM is 2090 ± 1000 µM. In the data set with glucosamine-6-phosphate [5], the “self-cleavage kobs at 2500 uM GlcN6P” value is 6.36e-05 ± 1e-05 s⁻¹. The “self-cleavage kobs at 10000 uM GlcN6P” value in the data set with glucosamine-6-phosphate [6] turned out to be 8.4e-05 ± 1.4e-05 s⁻¹.
As to G40A G66C, in the data set with glucosamine-6-phosphate [1], the kcat amounted to 0.000903 ± 0.00019 s⁻¹. In the data set with glucosamine-6-phosphate [2], the KM worked out at 2220 ± 740 µM. The “self-cleavage kobs at 40 uM GlcN6P” value in the data set with glucosamine-6-phosphate [3] turned out to be 3.77e-05 ± 1.3e-05 s⁻¹. In addition, the “self-cleavage kobs at 160 uM GlcN6P” value with glucosamine-6-phosphate [7] was determined as 6.89e-05 ± 1.1e-05 s⁻¹. Further, in the data set with glucosamine-6-phosphate [4], the “self-cleavage kobs at 640 uM GlcN6P” value was 0.000166 ± 3.2e-05 s⁻¹. Further, the “self-cleavage kobs at 2500 uM GlcN6P” value with glucosamine-6-phosphate [5] came to 0.00045 ± 8.6e-05 s⁻¹. Besides, the “self-cleavage kobs at 10000 uM GlcN6P” value with glucosamine-6-phosphate [6] was determined as 0.000774 ± 9.9e-05 s⁻¹.
With A53U C70G, in the data set with glucosamine-6-phosphate [1], the kcat was found to be 0.000152 ± 2.3e-05 s⁻¹. For the same variant, in the data set with glucosamine-6-phosphate [2], the KM stood at 168 ± 74 µM. Further, in the data set with glucosamine-6-phosphate [3], the “self-cleavage kobs at 40 uM GlcN6P” value is 8.15e-05 ± 2.5e-05 s⁻¹. In addition, the “self-cleavage kobs at 160 uM GlcN6P” value in the data set with glucosamine-6-phosphate [7] amounted to 6.88e-05 ± 7.7e-06 s⁻¹. The “self-cleavage kobs at 640 uM GlcN6P” value with glucosamine-6-phosphate [4] was determined as 0.000133 ± 1.5e-05 s⁻¹. Further, the “self-cleavage kobs at 2500 uM GlcN6P” value with glucosamine-6-phosphate [5] came out at 0.000136 ± 2.3e-05 s⁻¹. Also, in the data set with glucosamine-6-phosphate [6], the “self-cleavage kobs at 10000 uM GlcN6P” value turned out to be 0.000142 ± 2.6e-05 s⁻¹.
Consider A48U U56G, for which the kcat with glucosamine-6-phosphate [1] turned out to be 0.000239 ± 3.7e-06 s⁻¹. Also, the KM in the data set with glucosamine-6-phosphate [2] was 1590 ± 58 µM. Moreover, in the data set with glucosamine-6-phosphate [4], the “self-cleavage kobs at 640 uM GlcN6P” value was determined as 6.91e-05 ± 2e-05 s⁻¹. The “self-cleavage kobs at 10000 uM GlcN6P” value with glucosamine-6-phosphate [6] is 0.000206 ± 3.9e-05 s⁻¹.
On to A15G G59U C67U, for which, in the data set with glucosamine-6-phosphate [1], the kcat worked out at 5.74e-05 ± 6.3e-06 s⁻¹. Further, in the data set with glucosamine-6-phosphate [2], the KM is 2230 ± 1000 µM. Further, the “self-cleavage kobs at 10000 uM GlcN6P” value with glucosamine-6-phosphate [6] was determined as 4.69e-05 ± 1.5e-05 s⁻¹.
Turning to G38A U45A, in the data set with glucosamine-6-phosphate [1], the kcat is less than 1e-05 s⁻¹. Moreover, in the data set with glucosamine-6-phosphate [4], the “self-cleavage kobs at 640 uM GlcN6P” value is less than 1e-05 s⁻¹.
In the case of G32U U49G, the kcat with glucosamine-6-phosphate [1] came out at 5.32e-05 ± 7.1e-06 s⁻¹. Besides, the “self-cleavage kobs at 40 uM GlcN6P” value with glucosamine-6-phosphate [3] was less than 1e-05 s⁻¹. In addition, the “self-cleavage kobs at 2500 uM GlcN6P” value in the data set with glucosamine-6-phosphate [5] worked out at 4.54e-05 ± 1.2e-05 s⁻¹. Further, the “self-cleavage kobs at 10000 uM GlcN6P” value in the data set with glucosamine-6-phosphate [6] amounted to 4.7e-05 ± 6.6e-06 s⁻¹.
Take A12C A14C: the kcat with glucosamine-6-phosphate [1] was found to be 0.00082 ± 0.00025 s⁻¹. For the same variant, the KM with glucosamine-6-phosphate [2] came to 6190 ± 2800 µM. In addition, the “self-cleavage kobs at 160 uM GlcN6P” value with glucosamine-6-phosphate [7] came to 4e-05 ± 1.8e-05 s⁻¹. Moreover, in the data set with glucosamine-6-phosphate [4], the “self-cleavage kobs at 640 uM GlcN6P” value turned out to be 7.98e-05 ± 2e-05 s⁻¹. In the data set with glucosamine-6-phosphate [5], the “self-cleavage kobs at 2500 uM GlcN6P” value amounted to 0.000201 ± 5.1e-05 s⁻¹. For the same variant, the “self-cleavage kobs at 10000 uM GlcN6P” value with glucosamine-6-phosphate [6] amounted to 0.000534 ± 0.0001 s⁻¹.

By kcat is commonly meant the maximal rate divided by the concentration of active sites. A word on the KM: it is the substrate concentration at which the rate is half of its maximum.
